Biological target: non-structural protein 3 (Nsp3) ubiquitin-like domain 1 (Ubl1), 1-111

“Nucleocapsid protein (N) (from UniProt P0DTC9)” was tested. Which “other: partition coefficient” value did it give?
The value was “weaker; reference 12.6 ± 0.1”.

Reference: PMC11507936
